The assay addresses HLA-A2 (human). The experiment in a line: T2 cells without peptide stained with MA2.1 mAb, flow cytometry (baseline of the stabilization assay).

Consider MA2.1 mAb (antibody), for which the mean channel fluorescence came to 90.

The values above are taken from US20200157146A1.
